In PMC2185595 (The Journal of Cell Biology, 2000) one finds binding result and β-galactosidase activity data, which are given here for 2 molecules.

Assay [1] concerns the target T1, protein A–Vps39 (S. cerevisiae, UniProt Q07468 1-1049).
T1 sequence: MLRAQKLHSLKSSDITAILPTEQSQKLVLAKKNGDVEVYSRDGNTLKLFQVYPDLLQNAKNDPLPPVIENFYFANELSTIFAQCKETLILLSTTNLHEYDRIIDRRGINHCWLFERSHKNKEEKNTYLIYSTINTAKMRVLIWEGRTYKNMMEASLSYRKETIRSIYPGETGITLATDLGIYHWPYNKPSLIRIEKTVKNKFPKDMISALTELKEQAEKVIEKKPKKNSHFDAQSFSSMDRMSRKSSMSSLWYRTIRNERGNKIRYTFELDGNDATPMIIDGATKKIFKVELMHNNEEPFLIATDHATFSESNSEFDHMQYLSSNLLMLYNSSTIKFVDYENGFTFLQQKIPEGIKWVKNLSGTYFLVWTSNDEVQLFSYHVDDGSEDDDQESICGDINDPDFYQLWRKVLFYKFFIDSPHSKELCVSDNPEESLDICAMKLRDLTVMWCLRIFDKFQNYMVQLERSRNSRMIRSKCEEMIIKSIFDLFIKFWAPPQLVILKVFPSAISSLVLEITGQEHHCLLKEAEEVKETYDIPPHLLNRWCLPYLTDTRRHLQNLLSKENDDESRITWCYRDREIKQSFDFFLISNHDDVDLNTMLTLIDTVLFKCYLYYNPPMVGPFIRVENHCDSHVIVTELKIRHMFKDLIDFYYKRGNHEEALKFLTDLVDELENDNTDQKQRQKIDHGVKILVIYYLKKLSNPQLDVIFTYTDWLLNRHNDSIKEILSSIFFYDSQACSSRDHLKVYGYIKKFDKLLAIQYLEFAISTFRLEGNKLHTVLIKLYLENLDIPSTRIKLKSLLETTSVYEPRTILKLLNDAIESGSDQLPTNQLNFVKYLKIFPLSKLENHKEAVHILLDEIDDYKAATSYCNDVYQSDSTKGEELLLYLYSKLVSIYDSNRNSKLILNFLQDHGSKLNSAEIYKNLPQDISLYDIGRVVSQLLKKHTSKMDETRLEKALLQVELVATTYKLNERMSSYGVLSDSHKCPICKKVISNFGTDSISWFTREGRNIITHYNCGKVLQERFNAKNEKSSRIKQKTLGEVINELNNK
Nature of the assay: pull-down.

The target in assay [2] is Ypt7 T40A (two-hybrid fusion) (S. cerevisiae, UniProt P32939 1-208, T40A | C206S | C208S). Nature of the assay: two-hybrid.
Assay [3] has as its target Ypt7 I41S (two-hybrid fusion) (S. cerevisiae, UniProt P32939 1-208, I41S | C206S | C208S). Kind of assay: two-hybrid.
The target in assay [4] is Ypt7 D129A (two-hybrid fusion) (S. cerevisiae, UniProt P32939 1-208, D129A | C206S | C208S). Nature of the assay: two-hybrid.
In assay [5] the target is T2, Vps11 (two-hybrid fusion) (S. cerevisiae, UniProt P12868 1-1029).
T2 sequence: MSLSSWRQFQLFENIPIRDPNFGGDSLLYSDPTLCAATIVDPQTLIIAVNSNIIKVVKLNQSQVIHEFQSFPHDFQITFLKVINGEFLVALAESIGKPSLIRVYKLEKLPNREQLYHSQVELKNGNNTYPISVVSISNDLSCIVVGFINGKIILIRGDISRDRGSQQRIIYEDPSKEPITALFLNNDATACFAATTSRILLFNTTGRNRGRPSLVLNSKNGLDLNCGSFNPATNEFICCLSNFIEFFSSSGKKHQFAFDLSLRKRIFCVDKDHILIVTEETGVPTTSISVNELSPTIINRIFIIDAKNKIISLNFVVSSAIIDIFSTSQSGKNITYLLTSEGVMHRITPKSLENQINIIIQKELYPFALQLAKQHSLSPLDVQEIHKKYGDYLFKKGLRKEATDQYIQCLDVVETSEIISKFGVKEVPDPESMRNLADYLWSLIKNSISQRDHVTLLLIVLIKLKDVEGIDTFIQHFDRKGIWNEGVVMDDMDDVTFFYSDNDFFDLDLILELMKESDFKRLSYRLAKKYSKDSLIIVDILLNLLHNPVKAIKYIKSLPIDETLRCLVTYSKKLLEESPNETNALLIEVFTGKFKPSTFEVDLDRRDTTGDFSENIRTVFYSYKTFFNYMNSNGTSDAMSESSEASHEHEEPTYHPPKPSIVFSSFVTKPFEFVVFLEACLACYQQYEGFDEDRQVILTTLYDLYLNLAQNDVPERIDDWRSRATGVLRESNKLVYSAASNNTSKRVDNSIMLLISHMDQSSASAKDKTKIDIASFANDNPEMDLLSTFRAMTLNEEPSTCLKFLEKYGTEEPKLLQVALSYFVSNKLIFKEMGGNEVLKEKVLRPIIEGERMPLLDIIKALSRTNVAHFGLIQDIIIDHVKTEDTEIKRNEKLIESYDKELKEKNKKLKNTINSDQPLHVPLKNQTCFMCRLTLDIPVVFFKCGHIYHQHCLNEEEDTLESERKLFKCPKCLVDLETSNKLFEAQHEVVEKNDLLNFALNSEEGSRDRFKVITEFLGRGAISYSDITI
Nature of the assay: two-hybrid.

Assay [6] deals with Ypt7 Q68L (two-hybrid fusion) (S. cerevisiae, UniProt P32939 1-208, Q68L | C206S | C208S). Nature of the assay: two-hybrid.
Assay [7] concerns the target T3, Ras1 (two-hybrid fusion) (UniProt P01119 1-309).
T3 sequence: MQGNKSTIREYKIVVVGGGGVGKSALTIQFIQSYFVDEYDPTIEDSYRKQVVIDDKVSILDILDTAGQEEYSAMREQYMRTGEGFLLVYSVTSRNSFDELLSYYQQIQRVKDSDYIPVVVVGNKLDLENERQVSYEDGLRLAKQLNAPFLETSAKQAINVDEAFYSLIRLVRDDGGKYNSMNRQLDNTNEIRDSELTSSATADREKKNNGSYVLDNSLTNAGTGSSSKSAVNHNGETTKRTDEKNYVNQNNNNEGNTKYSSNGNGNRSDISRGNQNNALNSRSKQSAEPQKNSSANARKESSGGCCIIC
Kind of assay: two-hybrid.

The target in assay [8] is Ypt7 (two-hybrid fusion, ypt7 C206S, C208S) (S. cerevisiae, UniProt P32939 1-208, C206S | C208S). Kind of assay: two-hybrid.
The target of assay [9] is Ypt7 T22N (two-hybrid fusion) (S. cerevisiae, UniProt P32939 1-208, T22N | C206S | C208S). Nature of the assay: two-hybrid.
Assay [10] addresses T4, Vps21 (two-hybrid fusion) (S. cerevisiae, UniProt P36017 1-210).
T4 sequence: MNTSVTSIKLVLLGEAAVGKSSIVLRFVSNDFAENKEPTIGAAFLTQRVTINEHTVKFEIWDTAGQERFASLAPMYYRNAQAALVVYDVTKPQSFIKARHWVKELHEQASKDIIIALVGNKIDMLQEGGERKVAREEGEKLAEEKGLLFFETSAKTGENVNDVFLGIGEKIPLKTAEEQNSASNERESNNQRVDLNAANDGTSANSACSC
Nature of the assay: two-hybrid.

B1: GST-Ypt7 (natural protein)
chain: MSSRKKNILKVIILGDSGVGKTSLMHRYVNDKYSQQYKATIGADFLTKEVTVDGDKVATMQVWDTAGQERFQSLGVAFYRGADCCVLVYDVTNASSFENIKSWRDEFLVHANVNSPETFPFVILGNKIDAEESKKIVSEKSAQELAKSLGDIPLFLTSAKNAINVDTAFEEIARSALQQNQADTEAFEDDYNDAINIRLDGENNSCSC
As to B1, in assay [1], the binding result is “binds”.

B2: Vps39 (two-hybrid fusion) (natural protein)
chain: MLRAQKLHSLKSSDITAILPTEQSQKLVLAKKNGDVEVYSRDGNTLKLFQVYPDLLQNAKNDPLPPVIENFYFANELSTIFAQCKETLILLSTTNLHEYDRIIDRRGINHCWLFERSHKNKEEKNTYLIYSTINTAKMRVLIWEGRTYKNMMEASLSYRKETIRSIYPGETGITLATDLGIYHWPYNKPSLIRIEKTVKNKFPKDMISALTELKEQAEKVIEKKPKKNSHFDAQSFSSMDRMSRKSSMSSLWYRTIRNERGNKIRYTFELDGNDATPMIIDGATKKIFKVELMHNNEEPFLIATDHATFSESNSEFDHMQYLSSNLLMLYNSSTIKFVDYENGFTFLQQKIPEGIKWVKNLSGTYFLVWTSNDEVQLFSYHVDDGSEDDDQESICGDINDPDFYQLWRKVLFYKFFIDSPHSKELCVSDNPEESLDICAMKLRDLTVMWCLRIFDKFQNYMVQLERSRNSRMIRSKCEEMIIKSIFDLFIKFWAPPQLVILKVFPSAISSLVLEITGQEHHCLLKEAEEVKETYDIPPHLLNRWCLPYLTDTRRHLQNLLSKENDDESRITWCYRDREIKQSFDFFLISNHDDVDLNTMLTLIDTVLFKCYLYYNPPMVGPFIRVENHCDSHVIVTELKIRHMFKDLIDFYYKRGNHEEALKFLTDLVDELENDNTDQKQRQKIDHGVKILVIYYLKKLSNPQLDVIFTYTDWLLNRHNDSIKEILSSIFFYDSQACSSRDHLKVYGYIKKFDKLLAIQYLEFAISTFRLEGNKLHTVLIKLYLENLDIPSTRIKLKSLLETTSVYEPRTILKLLNDAIESGSDQLPTNQLNFVKYLKIFPLSKLENHKEAVHILLDEIDDYKAATSYCNDVYQSDSTKGEELLLYLYSKLVSIYDSNRNSKLILNFLQDHGSKLNSAEIYKNLPQDISLYDIGRVVSQLLKKHTSKMDETRLEKALLQVELVATTYKLNERMSSYGVLSDSHKCPICKKVISNFGTDSISWFTREGRNIITHYNCGKVLQERFNAKNEKSSRIKQKTLGEVINELNNK
As for B2, the β-galactosidase activity is about 13 U in assay [2]; about 13 U in [3]; 31 U in assay [4]; 2.8 U in [5]; about 3 U in assay [6]; under 0.25 U in assay [7]. Also, the values for the β-galactosidase activity in [8], in [9] and in assay [10] were about 4 U, about 5 U and under 0.25 U, respectively.
